Measurements as given in publication PMC8087788, “Parallel G-quadruplexes recruit the HSV-1 transcription factor ICP4 to promote viral transcription in herpes virus-infected human cells”.

T1: ICP4 (nuclear extract) (HSV-1 strain F) (UniProt P08392)
T1 sequence: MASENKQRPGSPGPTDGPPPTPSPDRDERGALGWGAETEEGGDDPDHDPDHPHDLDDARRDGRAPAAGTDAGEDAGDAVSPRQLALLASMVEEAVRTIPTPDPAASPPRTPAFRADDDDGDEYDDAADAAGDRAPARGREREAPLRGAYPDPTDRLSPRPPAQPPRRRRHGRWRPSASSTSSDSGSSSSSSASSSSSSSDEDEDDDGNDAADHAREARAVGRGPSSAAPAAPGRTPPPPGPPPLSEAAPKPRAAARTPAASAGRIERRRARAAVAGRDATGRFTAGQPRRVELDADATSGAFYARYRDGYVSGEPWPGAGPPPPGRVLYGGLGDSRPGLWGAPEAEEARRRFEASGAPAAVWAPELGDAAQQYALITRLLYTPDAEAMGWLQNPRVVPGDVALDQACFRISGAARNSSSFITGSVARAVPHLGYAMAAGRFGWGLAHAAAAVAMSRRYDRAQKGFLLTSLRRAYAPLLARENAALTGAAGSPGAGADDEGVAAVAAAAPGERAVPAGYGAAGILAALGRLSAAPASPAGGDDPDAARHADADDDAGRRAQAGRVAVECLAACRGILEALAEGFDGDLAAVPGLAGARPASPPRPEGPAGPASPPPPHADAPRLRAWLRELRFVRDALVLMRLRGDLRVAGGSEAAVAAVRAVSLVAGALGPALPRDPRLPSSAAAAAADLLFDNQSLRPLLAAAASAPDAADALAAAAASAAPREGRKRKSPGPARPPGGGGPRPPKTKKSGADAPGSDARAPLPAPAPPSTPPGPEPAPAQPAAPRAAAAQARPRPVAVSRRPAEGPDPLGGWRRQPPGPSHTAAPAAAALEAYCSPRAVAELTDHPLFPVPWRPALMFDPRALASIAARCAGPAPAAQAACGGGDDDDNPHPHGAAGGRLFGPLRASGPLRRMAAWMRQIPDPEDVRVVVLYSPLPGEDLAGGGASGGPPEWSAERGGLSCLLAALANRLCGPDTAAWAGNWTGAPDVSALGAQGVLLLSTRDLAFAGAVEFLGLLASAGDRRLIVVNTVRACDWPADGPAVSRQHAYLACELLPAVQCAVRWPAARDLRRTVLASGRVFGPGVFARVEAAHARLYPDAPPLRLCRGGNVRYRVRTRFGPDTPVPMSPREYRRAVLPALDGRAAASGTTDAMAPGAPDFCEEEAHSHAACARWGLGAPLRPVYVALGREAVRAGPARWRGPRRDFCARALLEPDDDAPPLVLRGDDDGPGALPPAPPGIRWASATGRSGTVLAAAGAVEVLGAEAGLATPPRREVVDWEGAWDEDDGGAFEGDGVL

T2: ufICP4 (ultrafiltrated ICP4) (HSV-1 strain F, UniProt P08392 1-1298)
T2 sequence: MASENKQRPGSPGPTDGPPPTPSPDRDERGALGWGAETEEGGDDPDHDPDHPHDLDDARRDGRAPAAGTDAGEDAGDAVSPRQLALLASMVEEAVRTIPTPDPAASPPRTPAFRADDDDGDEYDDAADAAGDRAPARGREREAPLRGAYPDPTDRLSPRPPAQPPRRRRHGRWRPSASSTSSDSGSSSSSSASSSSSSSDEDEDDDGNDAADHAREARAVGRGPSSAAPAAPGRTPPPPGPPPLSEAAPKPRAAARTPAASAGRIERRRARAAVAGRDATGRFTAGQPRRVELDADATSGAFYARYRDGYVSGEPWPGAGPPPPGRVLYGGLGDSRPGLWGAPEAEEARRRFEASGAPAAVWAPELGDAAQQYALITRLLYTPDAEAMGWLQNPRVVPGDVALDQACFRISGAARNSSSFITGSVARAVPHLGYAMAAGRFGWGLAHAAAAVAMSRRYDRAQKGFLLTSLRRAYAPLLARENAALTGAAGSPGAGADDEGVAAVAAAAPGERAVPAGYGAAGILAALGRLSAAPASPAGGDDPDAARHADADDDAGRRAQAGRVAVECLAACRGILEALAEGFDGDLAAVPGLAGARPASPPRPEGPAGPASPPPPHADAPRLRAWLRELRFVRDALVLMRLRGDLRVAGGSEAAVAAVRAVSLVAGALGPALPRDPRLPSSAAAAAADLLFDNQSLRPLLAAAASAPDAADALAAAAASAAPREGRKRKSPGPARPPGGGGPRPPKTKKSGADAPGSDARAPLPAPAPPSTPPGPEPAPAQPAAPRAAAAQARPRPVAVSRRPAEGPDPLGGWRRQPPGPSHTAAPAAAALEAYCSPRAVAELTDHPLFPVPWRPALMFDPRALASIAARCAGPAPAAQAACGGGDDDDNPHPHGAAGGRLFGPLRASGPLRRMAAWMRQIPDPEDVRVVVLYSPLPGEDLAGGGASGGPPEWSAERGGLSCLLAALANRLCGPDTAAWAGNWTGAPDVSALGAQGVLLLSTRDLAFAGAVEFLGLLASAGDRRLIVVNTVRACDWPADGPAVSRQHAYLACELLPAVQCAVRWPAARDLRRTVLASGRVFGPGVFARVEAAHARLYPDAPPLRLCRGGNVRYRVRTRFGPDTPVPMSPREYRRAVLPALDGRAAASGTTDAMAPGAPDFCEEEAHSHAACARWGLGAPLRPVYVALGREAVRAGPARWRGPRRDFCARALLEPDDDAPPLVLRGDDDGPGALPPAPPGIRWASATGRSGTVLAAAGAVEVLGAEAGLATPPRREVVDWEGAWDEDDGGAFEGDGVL


Tests used:
[1] = molecular target: T1, ICP4 (nuclear extract) (HSV-1 strain F); experiment: pull-down; details: XL pull-down: oligos folded in 20 mM PB pH 7.4, 80 mM KCl, 4 C, 45 min, wash 50 mM Tris-HCl pH 7.5, 150 mM NaCl; ICP4 EMSA: 20 mM Tris-HCl pH 8, 25 mM KCl …
[2] = molecular target: T2, ufICP4 (ultrafiltrated ICP4); experiment: EMSA; 5-10x ufICP4; XL pull-down: oligos folded in 20 mM PB pH 7.4, 80 mM KCl, 4 C, 45 min, wash 50 mM Tris-HCl pH 7.5, 150 mM NaCl; ICP4 EMSA: 20 mM Tris-HCl pH 8, 25 mM KCl, 1.5; details: protein: native, chain copies: 2, label: 5' FAM
ICP8 [3] = molecular target: T3, ICP8 (HSV-1, UniProt P04296 1-1196); experiment: EMSA; 0-3 ug ICP8; Na+ and K+ buffers; XL pull-down: oligos folded in 20 mM PB pH 7.4, 80 mM KCl, 4 C, 45 min, wash 50 mM Tris-HCl pH 7.5, 150 mM NaCl; ICP4 EMSA: 20 mM Tris-HCl pH 8, 25 mM KCl, 1.5; details: protein: recombinant; tags: GST; label: 32P (Methods) / 33P; G4
T3 sequence (P04296 whole entry): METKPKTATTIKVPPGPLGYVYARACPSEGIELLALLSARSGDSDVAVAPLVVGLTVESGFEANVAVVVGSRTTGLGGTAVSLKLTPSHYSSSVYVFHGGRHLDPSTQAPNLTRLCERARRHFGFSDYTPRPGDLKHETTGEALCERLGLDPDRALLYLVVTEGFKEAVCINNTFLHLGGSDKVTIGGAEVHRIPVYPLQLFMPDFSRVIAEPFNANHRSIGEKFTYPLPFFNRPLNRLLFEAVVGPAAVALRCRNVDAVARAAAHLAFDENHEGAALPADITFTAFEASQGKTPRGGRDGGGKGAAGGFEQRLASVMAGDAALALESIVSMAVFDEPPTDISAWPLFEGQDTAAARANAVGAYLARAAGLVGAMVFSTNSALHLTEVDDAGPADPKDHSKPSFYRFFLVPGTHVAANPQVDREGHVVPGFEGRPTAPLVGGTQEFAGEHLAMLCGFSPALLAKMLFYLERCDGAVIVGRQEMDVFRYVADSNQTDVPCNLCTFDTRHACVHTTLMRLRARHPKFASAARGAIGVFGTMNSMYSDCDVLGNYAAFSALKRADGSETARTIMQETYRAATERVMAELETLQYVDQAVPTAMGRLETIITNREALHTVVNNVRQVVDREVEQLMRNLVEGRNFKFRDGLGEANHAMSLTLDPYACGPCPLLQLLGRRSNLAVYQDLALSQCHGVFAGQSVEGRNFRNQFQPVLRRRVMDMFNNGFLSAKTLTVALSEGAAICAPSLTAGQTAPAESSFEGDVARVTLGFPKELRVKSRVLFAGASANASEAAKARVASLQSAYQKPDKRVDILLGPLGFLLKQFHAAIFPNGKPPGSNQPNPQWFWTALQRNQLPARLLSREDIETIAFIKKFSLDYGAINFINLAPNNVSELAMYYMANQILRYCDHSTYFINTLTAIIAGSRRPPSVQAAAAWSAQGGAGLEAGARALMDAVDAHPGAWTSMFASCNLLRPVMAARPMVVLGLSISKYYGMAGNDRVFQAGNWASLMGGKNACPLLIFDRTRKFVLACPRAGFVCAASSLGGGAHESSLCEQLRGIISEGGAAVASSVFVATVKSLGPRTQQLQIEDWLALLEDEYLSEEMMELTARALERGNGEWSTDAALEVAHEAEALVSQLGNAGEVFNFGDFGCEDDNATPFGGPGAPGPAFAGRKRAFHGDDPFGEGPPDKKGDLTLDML

ICP8 [4] = molecular target: T3, ICP8; experiment: EMSA; 0-3 ug ICP8; XL pull-down: oligos folded in 20 mM PB pH 7.4, 80 mM KCl, 4 C, 45 min, wash 50 mM Tris-HCl pH 7.5, 150 mM NaCl; ICP4 EMSA: 20 mM Tris-HCl pH 8, 25 mM KCl, 1.5; details: protein: recombinant; tags: GST; label: 32P (Methods) / 33P

| Molecule | binding signal [1] [fold vs IE3] | binding result (ICP8 [3]) | also measured |
| --- | --- | --- | --- |
| TTTTTGGGGAGGGTGGGGAGGGTGGGGAAGG [B-myc] | 2.5 | – | – |
| CGGGGCGGGCCGGGGGCGGGG [B-VEGF] | 2.5 | – | – |
| TTTTTCCGATCGTCCACACGGAGC (double strand) [B-IE3 (ICP4 consensus; IE-CS)] | – | – | binding signal (fold vs IE3 (reference)) [1]: 1 |
| TTTTTGGGGGCGAGGGGCGGGAGGGGGCGAGGGGGGGGGCGAGGGGCGGGAGGGGGCGAGGGG [B-un2L2] | 2.5 | – | – |
| GGAGTCGTGTCGCGTGTCGAGCGTGTGTAGTGG (ssDNA) [F-G-rich-scrambled] | – | – | binding result ([2]; unfolded): no binding |
| GGGTTAGGGTTAGGGTTAGGG (structured_DNA) [hTel (radiolabelled)] | – | no binding | – |
| GGGAGGCGTGGCCTGGGCGGGACTGGGG (structured_DNA) [LTR-III (radiolabelled)] | – | no binding | – |
| GGGGGCGAGGGGCGGGAGGGGGCGAGGGG (structured_DNA) [F-un2] | – | – | binding result ([2]; G4): binds |
| TTTTTTTTTTTTTTTTTTTTTTTTTTTTTT (ssDNA) [PolyT (T30)] | – | – | binding result (ICP8 [4]): binds |
| GGGGGCGAGGGGCGGGAGGGGGCGAGGGG (structured_DNA) [un2 (radiolabelled)] | – | no binding | – |
